1 substance from publication PMC12830090 can be followed below.

Experiment in all cases: NMR
For one data set, the target named is His33 (UniProt position 33, TDWCGHCQAAQ). As to conditions: 298 K.
The target in the next data set is Cys34 (UniProt position 34, DWCGHCQAAQP). The following applies: 298 K; reduced (dithiol) Patrx2, with DTT.
A further data set concerns the target Cys31 (UniProt position 31, FGTDWCGHCQA). The following applies: 298 K; reduced (dithiol) Patrx2, with DTT.

With “Patrx2 (atypical thioredoxin, PA2694) (Pseudomonas aeruginosa)”, the pKa (commonly the pH at which an ionisable group is half protonated) with His33 (oxidised (C31-C34 disulfide) Patrx2, without DTT) is “less than 5”; with His33 (reduced (dithiol) Patrx2, with DTT), 6.3; with Cys34, “greater than 11.5”; with Cys31, 5.8.
